In test [1] the target is T1, human CD28 (human, UniProt P10747 19-220).
T1 construct: whole, on cells; also called huCD28
Kind of test: flow cytometry on Jurkat cells. As for the experimental part:
(§1) Cells were harvested, checked for viability, and counted. 200'000 cells were incubated for 15 minutes at 4° C. with increasing concentrations of the antibodies diluted in FACS buffer (PBS 2% BSA). Cells were washed twice with cold FACS buffer and re-incubated for further 15 minutes at 4° C. with a suitable anti-human IgG secondary antibody. Cells were washed twice with cold FACS buffer and resuspended in 150 μl FACS buffer with a compatible viability marker. Binding of antibodies to living cells was measured by flow cytometry using a Cytoflex Platform (Beckman Coulter). Data was analyzed with FlowJo™ v10 software (BD Life Sciences) and dose-response binding curves were drawn using GraphPad Prism 9 software. AD84 GPC3 arm of the GPC3×CD3 bispecific antibody and P44, P30, P111 GPC3 arms of the GPC3×CD28 bispecific antibodies of this invention were selected from this screening process based on their specificity and binding signal intensity to GPC3 positive cells.
Examples of cells that can be used include GPC3 positive cell lines such as the gastric carcinoma cell line FU97 (JCRB1074), CD28 positive cell lines such as the leukemic Jurkat T cells as well as GPC3/CD28 double negative cell line, such as the leukemic TIB-153 cells. Cell staining and binding assessment was performed as described in Example 6. An irrelevant hIgG1 mAb served as negative isotype control and was used in all shown experiments for comparison. Binding data on FU97 cells (FIG. 2A) emphasizes the range of binding affinities for huGPC3 of the selected anti-GPC3 arms of the invention, P44 and P30. Both P44 and P30 arms are binding to membrane distal domains within GPC3. Binding on CD3 positive Jurkat cells highlight how these two CD28×GPC3 bispecific antibodies sharing the same anti-CD28 arm (e.g. AI3) bind similarly to CD28 positive cells (FIG. 2B).
A general note: A flow cytometer gives signals particle by particle.

Test [2] deals with T1, human CD28. Kind of test: flow cytometry, bivalent mAb on Jurkat cells. As for the experimental part: as §1
The binding capacity of the anti-CD28 antibody arms of the invention, tested as bivalent mAbs, was assessed using Jurkat cells (Jurkat Clone E6-1, ATCC TIB 152) by flow cytometry. The flow cytometry methodology was the same as the one described above. AI3 and AI10 CD28 binding arms were selected from this screening process based on their specificity and binding signal intensity to CD28 positive cells.

T1 sequence (P10747 19-220): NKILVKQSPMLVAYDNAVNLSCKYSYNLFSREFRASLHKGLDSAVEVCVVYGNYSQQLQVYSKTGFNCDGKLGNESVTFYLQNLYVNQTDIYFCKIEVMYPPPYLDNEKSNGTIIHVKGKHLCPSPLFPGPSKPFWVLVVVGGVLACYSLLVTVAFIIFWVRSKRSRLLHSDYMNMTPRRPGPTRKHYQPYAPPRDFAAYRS

B1: AI3P30/N (bispecific antibody, human IgG1, kappa, lambda, L234A L235A)
heavy: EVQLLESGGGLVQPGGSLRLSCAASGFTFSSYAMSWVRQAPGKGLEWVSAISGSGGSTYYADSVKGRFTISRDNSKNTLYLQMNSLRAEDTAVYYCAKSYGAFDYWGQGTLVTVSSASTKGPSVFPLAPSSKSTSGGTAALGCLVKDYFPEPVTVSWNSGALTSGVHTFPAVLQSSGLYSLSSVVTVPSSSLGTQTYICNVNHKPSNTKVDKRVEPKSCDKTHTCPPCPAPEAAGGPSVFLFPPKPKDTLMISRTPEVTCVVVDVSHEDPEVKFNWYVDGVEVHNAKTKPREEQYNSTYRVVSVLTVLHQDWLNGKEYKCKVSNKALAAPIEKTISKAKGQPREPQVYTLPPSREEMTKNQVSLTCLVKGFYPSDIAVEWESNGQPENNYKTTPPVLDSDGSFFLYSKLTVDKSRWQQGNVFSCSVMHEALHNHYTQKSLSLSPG
light 1: not shown
light 2: QSALTQPASVSGSPGQSITISCTGTSSDVPEDALVSWYQQHPGKAPKLMIYYDSTRPSGVSNRFSGSKSGNTASLTISGLQAEDEADYYCSSWDFGTGSKVFGGGTKLTVLGQPKAAPSVTLFPPSSEELQANKATLVCLISDFYPGAVTVAWKADSSPVKAGVETTTPSKQSNNKYAASSYLSLTPEQWKSHRSYSCQVTHEGSTVEKTVAPTECS
notes: also called GPC3×CD28 bispecific antibody
For B1, in the test with human CD28 [1], the binding result is “binds”.

B2: AI10 anti-CD28 bivalent mAb (antibody, V domains shown)
VH: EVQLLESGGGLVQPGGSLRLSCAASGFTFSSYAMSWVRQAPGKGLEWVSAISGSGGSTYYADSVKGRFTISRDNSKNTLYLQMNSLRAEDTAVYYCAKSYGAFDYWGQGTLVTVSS
VL: DIVMTQTPLSLSVTPGQPASISCKSSGDLLEFAGKTYLYWYLQKPGQPPQLLIYEVSNRFSGVPDRFSGSGSGTDFTLKISRVEAEDVGVYYCMQAHGSKIGFTFGQGTKVEIK
As to B2, in the test with human CD28 [2], the binding result is on record as “binds”.

B3: AI3P44/N (bispecific antibody, human IgG1, kappa, lambda, L234A L235A)
heavy: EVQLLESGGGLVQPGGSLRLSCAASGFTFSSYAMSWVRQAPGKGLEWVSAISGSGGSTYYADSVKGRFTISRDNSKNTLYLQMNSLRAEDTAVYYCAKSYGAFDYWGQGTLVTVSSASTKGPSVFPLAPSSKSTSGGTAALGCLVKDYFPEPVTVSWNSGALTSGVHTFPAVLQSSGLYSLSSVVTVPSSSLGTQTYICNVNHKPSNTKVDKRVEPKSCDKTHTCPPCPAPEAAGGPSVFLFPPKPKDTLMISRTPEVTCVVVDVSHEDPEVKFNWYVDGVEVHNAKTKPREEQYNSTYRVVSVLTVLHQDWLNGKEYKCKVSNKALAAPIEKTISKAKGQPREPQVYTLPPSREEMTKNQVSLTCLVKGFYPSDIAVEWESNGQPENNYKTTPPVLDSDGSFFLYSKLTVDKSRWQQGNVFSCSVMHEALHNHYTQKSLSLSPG
light 1: not shown
light 2: NFMLTQPHSVSESPGKTVTISCTRSSGSISYDDVQWYQQRPGSSPTTVIYFNNLRPSGVPDRFSGSIDSSSNSASLTISGLKTEDEADYYCQSWDLRHRVFGGGTKLTVLGQPKAAPSVTLFPPSSEELQANKATLVCLISDFYPGAVTVAWKADSSPVKAGVETTTPSKQSNNKYAASSYLSLTPEQWKSHRSYSCQVTHEGSTVEKTVAPTECS
notes: also called GPC3×CD28 bispecific antibody; GPC3×CD28 κλ-body
As for B3, in the test with human CD28 [1], the binding result is listed as “binds”.

B4: AI10P44/N (bispecific antibody, human IgG1, kappa, lambda, L234A L235A)
heavy: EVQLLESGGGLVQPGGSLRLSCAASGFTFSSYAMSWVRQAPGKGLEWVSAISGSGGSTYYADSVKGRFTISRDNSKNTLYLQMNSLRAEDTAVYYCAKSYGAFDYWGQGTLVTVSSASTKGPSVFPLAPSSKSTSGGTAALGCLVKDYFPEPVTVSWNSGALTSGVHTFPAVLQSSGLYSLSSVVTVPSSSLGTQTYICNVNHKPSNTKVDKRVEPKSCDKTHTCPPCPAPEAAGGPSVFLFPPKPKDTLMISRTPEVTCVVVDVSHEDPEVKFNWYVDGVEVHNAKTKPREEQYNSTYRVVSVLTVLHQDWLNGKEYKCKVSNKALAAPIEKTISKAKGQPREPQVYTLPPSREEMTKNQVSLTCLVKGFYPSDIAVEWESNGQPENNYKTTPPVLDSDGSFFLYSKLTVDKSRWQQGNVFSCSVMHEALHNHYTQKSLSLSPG
light 1: DIVMTQTPLSLSVTPGQPASISCKSSGDLLEFAGKTYLYWYLQKPGQPPQLLIYEVSNRFSGVPDRFSGSGSGTDFTLKISRVEAEDVGVYYCMQAHGSKIGFTFGQGTKVEIKRTVAAPSVFIFPPSDEQLKSGTASVVCLLNNFYPREAKVQWKVDNALQSGNSQESVTEQDSKDSTYSLSSTLTLSKADYEKHKVYACEVTHQGLSSPVTKSFNRGEC
light 2: B3 light 2
notes: also called AI10-containing bispecific antibody; GPC3×CD28 bispecific antibody
With B4, the binding result with human CD28 [1] is “binds”.

For the origin of these results see patent publication US20230287146A1 (LAMKAP BIO GAMMA, published 2023).
